Measurements reported in paper doi:10.1101/2023.10.18.562911.

Legend:
[1] = molecular target: full-length GST-yKu70 (S. cerevisiae) (UniProt P32807); test: MST
[2] = molecular target: full-length GST-Rfa1 (S. cerevisiae) (UniProt P22336); test: MST
Sequence of UniProt P22336 (P22336 whole entry): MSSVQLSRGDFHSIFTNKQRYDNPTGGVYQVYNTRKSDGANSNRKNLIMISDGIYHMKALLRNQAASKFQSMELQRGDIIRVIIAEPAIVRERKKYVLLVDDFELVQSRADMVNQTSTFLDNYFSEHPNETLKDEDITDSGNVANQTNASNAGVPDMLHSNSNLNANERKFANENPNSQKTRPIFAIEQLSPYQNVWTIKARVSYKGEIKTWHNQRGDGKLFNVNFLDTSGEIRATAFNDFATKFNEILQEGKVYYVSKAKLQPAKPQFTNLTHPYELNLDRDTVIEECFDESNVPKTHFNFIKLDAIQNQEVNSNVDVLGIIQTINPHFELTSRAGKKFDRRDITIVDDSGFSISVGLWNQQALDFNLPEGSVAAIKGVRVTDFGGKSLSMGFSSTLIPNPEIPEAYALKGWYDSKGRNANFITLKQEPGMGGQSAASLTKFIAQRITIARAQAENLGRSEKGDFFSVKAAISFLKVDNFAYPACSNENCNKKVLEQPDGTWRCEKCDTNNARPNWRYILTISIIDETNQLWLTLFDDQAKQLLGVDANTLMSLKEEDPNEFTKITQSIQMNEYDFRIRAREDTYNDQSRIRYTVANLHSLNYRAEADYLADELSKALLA

Sequence of UniProt P32807 (P32807 whole entry): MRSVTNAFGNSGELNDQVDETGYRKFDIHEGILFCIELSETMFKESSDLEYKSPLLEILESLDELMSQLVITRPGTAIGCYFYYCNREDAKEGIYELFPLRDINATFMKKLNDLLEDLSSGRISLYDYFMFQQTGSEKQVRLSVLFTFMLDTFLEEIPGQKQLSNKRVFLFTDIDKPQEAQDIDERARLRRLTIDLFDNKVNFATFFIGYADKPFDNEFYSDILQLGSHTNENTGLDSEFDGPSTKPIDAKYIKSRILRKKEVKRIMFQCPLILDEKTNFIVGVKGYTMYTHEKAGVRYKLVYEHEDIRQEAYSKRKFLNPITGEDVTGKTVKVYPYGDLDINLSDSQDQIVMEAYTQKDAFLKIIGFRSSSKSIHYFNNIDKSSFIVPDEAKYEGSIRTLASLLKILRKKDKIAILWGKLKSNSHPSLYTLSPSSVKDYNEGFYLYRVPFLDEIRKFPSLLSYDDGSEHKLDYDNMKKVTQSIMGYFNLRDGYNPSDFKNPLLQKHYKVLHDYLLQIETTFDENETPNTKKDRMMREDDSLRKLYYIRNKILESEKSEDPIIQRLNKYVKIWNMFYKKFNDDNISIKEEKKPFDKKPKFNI

| Substance | Kd [1] [nM] | Kd [2] [nM] |
| --- | --- | --- |
| native chicken erythrocyte nucleosomes (complex) | 1200 | 1000 |
| yeast Y149F^me3 nucleosomes (from UniProt P61830 1-136) (complex) | – | 1000 |
| yeast Y236F^me2 nucleosomes (from UniProt P61830 1-136) (complex) | 1200 | – |
